Where a chain is given by its changes, count along the chain named.
T1: His-tagged mouse FSTL1 (amino acid sequence of mouse FSTL1 used in Examples, SEQ ID NO: 72) (mouse, UniProt Q62356 19-306)
T1 sequence: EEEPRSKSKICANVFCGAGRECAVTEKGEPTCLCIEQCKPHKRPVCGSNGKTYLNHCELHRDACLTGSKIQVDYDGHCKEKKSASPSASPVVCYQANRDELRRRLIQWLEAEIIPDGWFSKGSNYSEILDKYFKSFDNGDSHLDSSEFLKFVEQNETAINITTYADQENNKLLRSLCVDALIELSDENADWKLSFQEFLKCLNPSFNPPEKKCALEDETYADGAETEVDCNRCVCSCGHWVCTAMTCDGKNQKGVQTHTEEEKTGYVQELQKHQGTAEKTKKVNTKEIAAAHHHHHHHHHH

T2: human FSTL1 (construct not stated) (human, UniProt Q12841 21-308)
T2 construct: also called human FSTL1 antigen; FSTL1 (R&D Systems, Inc. Cat#1694-FN-050)
T2 sequence: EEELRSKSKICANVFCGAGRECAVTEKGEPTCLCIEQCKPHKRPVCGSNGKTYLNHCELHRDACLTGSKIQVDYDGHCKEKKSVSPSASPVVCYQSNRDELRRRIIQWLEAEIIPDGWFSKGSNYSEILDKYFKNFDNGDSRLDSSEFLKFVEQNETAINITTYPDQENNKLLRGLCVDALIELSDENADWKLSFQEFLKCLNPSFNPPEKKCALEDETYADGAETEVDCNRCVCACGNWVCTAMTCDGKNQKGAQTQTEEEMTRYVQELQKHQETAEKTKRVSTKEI

B1: anti-FSTL1 antibody clone #8-1 (chicken-mouse chimeric antibody) (antibody, mouse IgG1, kappa, V domains shown)
VH: AVTLDESGGGLQTPGGALSLVCKGSGFTFSSFNMFWVRQAPGKGLEWVAGIGKDGVPKYGAAVDGRATISKDNGQSTMRLQLNNLRAEDTGTYFCAKAAGGCSYDWCGIYAGDIDTWGHGTEVIVSS
VL: ASTQPSSVSANPGEAVKITCSGGSGSYYGWYQQKSPGSAPVTVIYNNNQRPSDIPSRFSGSKSGSTATLTITGVQAEDEAVYFCGGYDSSSGHGGIFGAGTTLTVLG
B2: anti-FSTL1 antibody clone #5-8 (chicken-mouse chimeric antibody) (antibody, mouse IgG1, kappa, V domains shown)
VH: B1 VH with A17G, A61T, A111T
VL: B1 VL with S91T
B3: anti-FSTL1 antibody clone #6-55 (chicken-mouse chimeric antibody) (antibody, mouse IgG1, kappa, V domains shown)
VH: AVTLDESGGGLQTPGGALSLVCKGSGFTFTSVTMQWVRQAPGKGLEWVASVCSGSSTYYAPAVKGRATISRDNGQSTVRLQLSNLRPEDTGTYYCAKIAGRARWSCTSAAYNIDAWGHGTEVIVSS
VL: ASTQPSSVSAIPGETVKITCSGGGNNYGWYQQRSPGSAPVTVIYYNDNRPSNIPSRFSGSTSGSTSTLTITGVQADDEAIYYCGSWDSNTDSGIFGAGTTLTVLG
notes: also called Anti-FSTL1 mAb (#6-55)
B4: anti-FSTL1 antibody clone #13 (chicken-mouse chimeric antibody) (antibody, mouse IgG1, kappa, V domains shown)
VH: AVTLDESGGGLQTPGGGLSLVCKASGFTFSSVTMQWVRQAPGKGLEWVASICSGSSTYYGPAVKGRATISRDNGQNTVRLQLNNLRAEDTATYYCAKIVGRGRWSCTSAAYNIDAWGHGTEVIVSS
VL: ASTQPSSVSANPGETVKITCSGGGNNYGWYQQKSPGSAPVTVIYNNNNRPSNIPSRFSGSKSGSTNTLTITGVQAEDEAVYYCGSYDSSSDSGIFGAGTTLTVLG
B5: anti-FSTL1 antibody clone #33 (chicken-mouse chimeric antibody) (antibody, mouse IgG1, kappa, V domains shown)
VH: AVTLDESGGGLQTPGGGLSLVCKASGFTFSSFNMNWVRQAPGKGLEYVAEISGTGSSTYYGSAVKGRATISRDNGQSTVRLQLNNLRAEDTATYFCARGDGAYSIDAWGHGTEVIVSS
VL: ASTQPSSVSANPGETVEITCSGDSSYYGWFQQKSPGSAPVTVIYDNTNRPSDIPSRFSGSKSGSTATLTITGVRAEDEAVYYCGGYDSSTYDGIFGAGTTLTVLG
B6: anti-FSTL1 antibody clone #8-7 (chicken-mouse chimeric antibody) (antibody, mouse IgG1, kappa, V domains shown)
VH: B1 VH with A17G, M78L
VL: B1 VL with S91T
B7: anti-FSTL1 antibody clone #5-3 (chicken-mouse chimeric antibody) (antibody, mouse IgG1, kappa, V domains shown)
VH: B1 VH with T28S
VL: ASTQPSSVSANPGETVKITCSGGSGYYYGWYQQKSPGSVPVTVIYNNNNRPSDIPSRFSGSKSGSTGTLTITGVRAEDEAVYYCGGYDNSGTGIFGAGTTLTVLG
B8: anti-FSTL1 antibody clone #5-43 (chicken-mouse chimeric antibody) (antibody, mouse IgG1, kappa, V domains shown)
VH: B1 VH with A17G, V56G, P57T, K58G, N73S, M78L, F94Y, I109A, A111T
VL: B1 VL with S91T
B9: anti-FSTL1 antibody clone #5-2 (chicken-mouse chimeric antibody) (antibody, mouse IgG1, kappa, V domains shown)
VH: AVTLDESGGGLQTPGGGLSLVCKGSGFTFSSFNMFWVRQAPGKGLEWVAGVGKDGGTGYGAAVDGRATISKDNGQSTLRLQLNNLRAEDTGTYYCAKAAGGCSYGWCGSYVGDIDAWGHGTEVIVSS
VL: B1 VL with S91T
B10: anti-FSTL1 antibody clone #8-8 (chicken-mouse chimeric antibody) (antibody, mouse IgG1, kappa, V domains shown)
VH: B1 VH with F94Y, D105G, I109A, A111T
VL: B1 VL with A76V, S91T
B11: anti-FSTL1 antibody clone #5-10 (chicken-mouse chimeric antibody) (antibody, mouse IgG1, V domains shown)
VH: B9 VH with F29L, G58T, K71R, N73S, L78V, N84D, Y94F, G105S, S109A, I114L
VL: ASTQPSSVSANPGETVKITCSGGGSYVGSYYYGWYQQKSPGSAPVTVIYNNNQRPSDIPSRFSGSKSGSTATLTITGVQAEDEAVYFCGGYDSSAGGIFGAGTTLTVLG
B12: humanized #6-55 antibody H(3)-L(1) (IgG1 type) (antibody, V domains shown)
VH: EVQLLESGGGLVQPGGSLRLSCAASGFTFSSVTMQWVRQAPGKGLEFVASVCSGSSTYYAPAVKGRVTISRDNSKNTVYLQMNSLRAEDTAVYYCAKIAGRARWSCTSAAYNIDAWGQGTLVTVSS
VL: SYELTQPPSVSVSPGQTARITCSGGGNNYGWYQQKPGQAPVTVIYYNDNRPSGIPERFSGSNSGSTTTLTISGVQAEDEADYYCGSWDSNTDSGIFGGGTKLTVLG
notes: Human IgG1 constant region; expressed in HEK293; also called h#6-55 H(3)-L(1)

Each binder was assayed against T1, His-tagged mouse FSTL1 (amino acid …) (assay: ELISA, mouse FSTL1 coated (FIG. 3B)).

binding result	Binder
binds	B1
binds	B3
binds	B4
binds	B5

Binder	binding result
B2	no binding (tested: antibody diluted from 100 ng/ml)

These binders were tested against T2, human FSTL1 (construct not stated) (assay: SPR (Biacore T-200), captured antibody, human FSTL1 10 µg/ml; for Dissociation amount (RU): time not given here).
Procedure: (§1) The mouse chimeric antibodies were immobilized onto Sensor Chip CM5 (GE Healthcare Japan Corp., BR-1005-30) using Mouse Antibody Capture Kit (GE Healthcare Japan Corp., BR-1008-38), and their affinity for human FSTL1 was calculated using Biacore T-200 (GE Healthcare Japan Corp.).

Binding amount (RU)	Dissociation amount (RU)	Binder
12.8	11.8	B6
11	8.8	B7
11.1	12.3	B1
7	3.1	B8
6.7	3.4	B2
9.2	7.1	B9
8	4.7	B10
11	1.5	B3
8.7	0.2	B4
9.8	12.1	B11
10.9	4.1	B5

Target: T2, human FSTL1 (construct not stated)
Test: as above
Remark: another data set of the same source
Procedure: as §1
(§2) First, the exhaustive activity comparison of the obtained antibodies was conducted with the human FSTL1 concentration fixed to 10 μg/ml (Table 33-1, FIG. 28).

Binding amount (RU)	Dissociation amount (RU)	Binder
12.8	11.8	B6
11	8.8	B7
11.1	12.3	B1
7	3.1	B8
6.7	3.4	B2
9.2	7.1	B9
8	4.7	B10
11	1.5	B3
8.7	0.2	B4
9.8	12.1	B11
10.9	4.1	B5

Target: T2, human FSTL1 (construct not stated)
Test: as above
Remark: another data set of the same source
Procedure: as §1, §2

Binding amount (RU)	Dissociation amount (RU)	Binder
12.8	11.8	B6
11	8.8	B7
11.1	12.3	B1
7	3.1	B8
6.7	3.4	B2
9.2	7.1	B9
8	4.7	B10
11	1.5	B3
8.7	0.2	B4
9.8	12.1	B11
10.9	4.1	B5

Target: T2, human FSTL1 (construct not stated)
Test: as above
Remark: another data set of the same source
Procedure: as §1, §2

Binding amount (RU)	Dissociation amount (RU)	Binder
12.8	11.8	B6
11	8.8	B7
11.1	12.3	B1
7	3.1	B8
6.7	3.4	B2
9.2	7.1	B9
8	4.7	B10
11	1.5	B3
8.7	0.2	B4
9.8	12.1	B11
10.9	4.1	B5

Each binder was assayed against T2, human FSTL1 (construct not stated) (assay: SPR (Biacore T-200), antibody on Human Antibody Capture Kit, human FSTL1 0 to 20 µg/ml).
Procedure: (§3) Nine IgG1-type humanized antibodies of #6-55 were immobilized onto Sensor Chip CM5 (GE Healthcare Japan Corp., BR-1005-30) using Human Antibody Capture Kit (GE Healthcare Japan Corp., BR-1008-38), and their affinity for human FSTL1 was calculated using Biacore T-200 (GE Healthcare Japan Corp.). […] Among the 9 IgG1-type humanized antibodies of #6-55, a clone composed of a combination “H(2)-L(1)” having a […] KD value was selected as a lead antibody.

Kd [µM]	Binder
0.0267	B12

Target: T2, human FSTL1 (construct not stated)
Test: as above
Remark: another data set of the same source
Procedure: as §3

Kd [µM]	Binder
0.0267	B12
